In article PMC4977002 one finds Kd and koff data, which are given here for one substance.

Experiment in all cases: SPR
(In SPR one partner is held on a chip, and binding of the other changes the refractive index at the surface.)

The target of assay [1] is h9C12 N434A (mouse | human).
In assay [2] the target is h9C12 H433K (mouse | human).
The target in assay [3] is h9C12 N434S (mouse | human).
The target of assay [4] is h9C12 P329A (mouse | human).
In assay [5] the target is h9C12 H435A (mouse | human).
Assay [6] addresses h9C12 N434D (mouse | human).
Assay [7] has as its target humanized 9C12 (h9C12), wild type, human IgG1/kappa (mouse | human).
In assay [8] the target is h9C12 I253A (mouse | human).
Assay [9] concerns the target h9C12 L235A (mouse | human).
Assay [10] concerns the target h9C12 H310A (mouse | human).

As a reminder, the Kd is a measure of binding affinity in units of concentration. One may read the koff as the rate constant with which the complex falls apart. A high value points to fast dissociation. Consider “Recombinant human TRIM21 PRYSPRY (from UniProt P19474 287-465) (domain or fragment)”, for which the Kd turned out to be 2000 nM in assay [1]; 21500 nM in [2]; 3600 nM in assay [3]; 220 nM in [4]; 5530 nM in assay [5]; 4500 nM in assay [6]. The Kd stood at 212 nM in assay [7], 565 nM in assay [8], 226 nM in [9] and 262 nM in assay [10]. Further, the off-rate constant (koff) worked out at 0.062 s⁻¹ in assay [4], 0.177 s⁻¹ in assay [8], 0.062 s⁻¹ in [9] and 0.086 s⁻¹ in assay [10].
